Data on eight sequences can be found in the DeepSol protein solubility set.

The nature of the data set: soluble on expression in E. coli; label from the status in PepcDB or PDB records.
“MADSAQDLAFTAENFESLLNEQLGESGGLEGSVLTGTVIGVSGDFAVVDVGLKSEGRVPLKEFSRGGDDAEIKIGDTVDVFVERYEDKDGLIVLSRDKARREEAWNELEKAFNDNQRVRGLIHSRVKGGFTVDLSGAIAFLPGSQVDIRPVRDIGPLLGQPQVFQILKMDRARGNIVVSRRAVLEETRAEERSKLMETLREGEILEGVVKNITDYGAFVDLGGVDGLLHVTDISWKRINHPTEALSIGQTVKVQVIRFNAETQRISLGMKQLEADPWEGVAAKYPVGTKFVGRVTNITDYGAFVELEPGVEGLVHVSEMSWTKKNVHPGKIVSTSQEVEVMILDVDPDKRRISLGLKQTMANPWSEFLEGHPIGTEVEGEIKNITEFGLFIGLTGDIDGMIHLSDLDWNRSGDEAVKDYKKGDVVQAKVLDVDVEKERISLGVKQLGEDPYREATADLRKNQIVTCVITMVQENGIEVDVNGAIGFIRKSDLARERADQRPERFAVGEKVDAKVINMDKSNRRMTLSIKAREMDEEKQAMAEYGSADSGASLGDILGAALKQAQEKARTGDDELEHHHHHH”: the “soluble on expression in E. coli” value was “not soluble”.

Take “GPGSMQMEEKQAFFVESVDGRKFKMVIRGDLGKLSVAKIRRYLKSYGVPENQLLLAGNRVLEDAMLGEQFGLENEGVLHLREPTTVQHLAPAAVPSTAQSRTQLQQKPELSYEPQSAWRETRYEPAAHDARQMQREIERLQRQVEAAEARNADLEHQLEQVAESSAPYPPRGGAGGARRMSNSSDLDGLQVAKQSLKILAQKLGVSLQFDKNLTCVVGTDADFSILLTYDPATERLYIYSSLLTELPDHPPLRMKLYEVLLEGSLLGREVCGGGVGLSTQNNVVVLTTSLPVRHCSPEALCEVMPLFVETLVRWRSLIDELVR”: the “soluble on expression in E. coli” value was “soluble”.

In the case of “MADTIEVDGKQFAVDEEGYLSNLNDWVPGVADVMAKQDNLELTEEHWDIINFLREYYEEYQIAPAVRVLTKAVGKKLGKEKGNSKYLYSLFPYGPAKQACRFAGLPKPTGCV”, the “soluble on expression in E. coli” value is “soluble”.

“MSLRAVIRVAFILMDNFSLMSFTAAMDALVTANLMGDAPIFDIVKIGLKGRVAMSDLGIAIPTDLDLSELRARHDLLLVVGGLRVDLKSTPCLRRKLFAAASAGTSLGGLWNGAYFLADARVMGGHTCAVHPDGRAMMADAFPDLRISDRSHVVDLERVTCAGASSSLRMMLEYIRVTKGSSLARAVEEILGCDEHEGHHHHHH”: the “soluble on expression in E. coli” value is “soluble”.

With “KLEGAFAKGTNVLMADGSIECIENIEVGNKVMGKDGRPREVIKLPRGRETMYSVVQKSQHRAHKSDSSREVPELLKFTCNATHELVVRTPRSVRRLSRTIKGVEYFEVITFEMGQKKAPDGRIVELVKEVSKSYPISEGPERANELVESYRKASNKAYFEWTIEARDLSLLGSHVRKATYQTYAPILYENDHFFDYMQKSKFHLTIEGPKVLAYLLGLWIGDGLSDRATFSVDSRDTSLMERVTEYAEKLNLCAEYKDRKEPQVAKTVNLYSKVVRGNGIRNNLNTENPLWDAIVGLGFLKDGVKNIPSFLSTDNIGTRETFLAGLIDSDGYVTDEHGIKATIKTIHTSVRDGLVSLARSLGLVVSVNAEPAKVDMNGTKHKISYAIYMSGGDVLLNVLSKCAGSKKFRPAPAAAFARECRGFYFELQELKEDDYYGITLSDDSDHQFLLANQVVVHACGER”, the “soluble on expression in E. coli” value was “soluble”.

With “MTYSIVAISGSPSRNSTTAKLAEYALAHVLARSDSQGRHIHVIDLDPKALLRGDLSNAKLKEAVDATCNADGLIVATPIYKASYTGLLKAFLDILPQFALAGKAALPLATGGSPAHVLALDYGLRPVLHSMGVRHVVQSFFLVQSQFSVVDGKLAVEDDVASQLNNAIDHFRLSLSSEPSTRHLGHPRPSLDATRAA”, the “soluble on expression in E. coli” value is listed as “soluble”.

In the case of “MKRVEDWIKQAERDLEEARYAKSGGYYELACFLSQQCAEKAVKGLLQFQGIEKRGHSISHLLTNPPADILQCATFLDKQYTPSRYPDVYYEGAPYEYYTERDADECINCAIRILNWVKGQIK”, the “soluble on expression in E. coli” value is on record as “soluble”.

As to “EAQTETCTVAPRERQNCGFPGVTPSQCANKGCCFDDTVRGVPWCFYPNTIDVPPEEESEF”, the “soluble on expression in E. coli” value was “soluble”.
